In article PMC6879610:

Legend:
Env HxB2 (HIV-1 (HxB2)) = Env HxB2 (HIV-1 (HxB2)) (UniProt P04578)
[1] = biological target: Env Du156.12 (HIV-1 (Du156.12))

## PGZL1 F100A IgG (antibody)
Env HxB2 (HIV-1 (HxB2))
  neutralisation of HxB2 (TZM-bl), fold decrease against PGZL1: > 10 fold
[1]
  neutralisation of Du156.12 (TZM-bl), fold decrease against PGZL1: > 10 fold

## PGZL1 W99A IgG (antibody)
Env HxB2 (HIV-1 (HxB2))
  neutralisation of HxB2 (TZM-bl), fold decrease against PGZL1: > 10 fold
[1]
  neutralisation of Du156.12 (TZM-bl), fold decrease against PGZL1: > 10 fold
